Experimental findings from paper PMC3716775, “Interaction between Trehalose and MTHase from Sulfolobus solfataricus Studied by Theoretical Computation and Site-Directed Mutagenesis” (PLoS ONE, 2013) are described below.

B1: MTHase (maltooligosyltrehalose trehalohydrolase) from S. solfataricus ATCC 35092 (Saccharolobus solfataricus P2) (protein)
chain: MTFGYKLDEDGVTFNLWAPYQRKVKLKILNRGIYEMERDDKGYFTITLDNVRVGDRYKYILDDNSEVPDPASRYQPEGVHGYSEIISPDFEWDDENSVKVKREDLVIYELHIGTFTSEGTFEGVIKKLNYLKELGVTAIEIMPIAQFPGKKDWGYDGVYLYAVQNSYGGPSGFRKLVNEAHKLGLAVILDVVYNHVGPEGNYMVKLGPYFSEKYKTPWGLTFNFDDAGSDEVRKFILENVEYWINEFHVDGFRLDAVHAIIDNSPKHILEDIADVVHKYDKIVIAESDLNDPRVVNPKEKCGYNIDAQWVDDFHHAIHAFLTGERQGYYSDFGSIGDIVKSYKDVFIYDGKYSNFRRKTHGKSVGDLDGCKFVVYIQNHDQVGNRGGGERLIKLVDKESYKIAAALYILSPYIPMIFMGEEYGEENPFYYFSDFSDPKLIQGVREGRRRENGQETDPQSDCTFNDSKLSWKINDDILSFYKSLIKIRKEYGLACNRKLSVENGNYWLTVKGNGCLAVYVFSKSVIEMKYSGTLVLSSNSSFPSQITESKYELDKGFALYKL
notes: expressed from pET-15b-ΔH-treZ in E. coli BL21-CodonPlus (DE3)-RIL; heat treatment 80 °C, Q-Sepharose; docking model was the KM1 enzyme (PDB 1EH9), not the assayed protein
B2: MTHase (maltooligosyltrehalose trehalohydrolase) from S. solfataricus ATCC 35092 (Saccharolobus solfataricus P2; D156A) (protein)
chain: B1 chain with D156A
notes: as for B1
B3: MTHase (maltooligosyltrehalose trehalohydrolase) from S. solfataricus ATCC 35092 (Saccharolobus solfataricus P2; H195A) (protein)
chain: B1 chain with H195A
notes: as for B1
B4: MTHase (maltooligosyltrehalose trehalohydrolase) from S. solfataricus ATCC 35092 (Saccharolobus solfataricus P2; Y155A) (protein)
chain: B1 chain with Y155A
notes: as for B1
B5: MTHase (maltooligosyltrehalose trehalohydrolase) from S. solfataricus ATCC 35092 (Saccharolobus solfataricus P2; E450A) (protein)
chain: B1 chain with E450A
notes: as for B1
B6: MTHase (maltooligosyltrehalose trehalohydrolase) from S. solfataricus ATCC 35092 (Saccharolobus solfataricus P2; R447A) (protein)
chain: B1 chain with R447A
notes: as for B1
B7: MTHase (maltooligosyltrehalose trehalohydrolase) from S. solfataricus ATCC 35092 (Saccharolobus solfataricus P2; Y155F) (protein)
chain: B1 chain with Y155F
notes: as for B1

Changes are numbered by the printed parent chain. In names and notes the source's numbering stands.

Substrate in the data set: OC[C@H]1O[C@H](O[C@H]2O[C@H](CO)[C@@H](O[C@H]3O[C@H](CO)[C@@H](O[C@H]4O[C@H](CO)[C@@H](O[C@H]5O[C@H](CO)[C@@H](O)[C@H](O)[C@H]5O)[C@H](O)[C@H]4O)[C@H](O)[C@H]3O)[C@H](O)[C@H]2O)[C@H](O)[C@@H](O)[C@@H]1O
The data set is described as follows: initial rates of G3T hydrolysis, Michaelis-Menten fit. In kind it is biochemical, Saccharolobus solfataricus. Conditions: 50 mM citrate-phosphate pH 5, 60 °C. The source says: initial rates of […] hydrolysis, Michaelis-Menten fit on […] (maltooligosyltrehalose trehalohydrolase) from S. solfataricus ATCC 35092
What is called Km is the concentration of substrate that gives half-maximal velocity. What is called kcat is the number of substrate molecules converted per active site and unit of time at saturation. In general, kcat/Km refers to the second-order rate constant that governs catalysis at low substrate concentration. Take B1: the Km is 5.22 ± 0.59 mM, the kcat came to 947 ± 40 s⁻¹ and the kcat/Km is 182000 ± 14000 M⁻¹ s⁻¹.

Take B2: the Km was determined as 12.9 ± 2.3 mM, the catalytic constant (kcat) was 608 ± 62 s⁻¹ and the catalytic efficiency (kcat/Km) turned out to be 47300 ± 3700 M⁻¹ s⁻¹.

With B3, the Km worked out at 4.18 ± 0.31 mM, the kcat was 2.15 ± 0.05 s⁻¹ and the kcat/Km amounted to 510 ± 30 M⁻¹ s⁻¹.

In the case of B4, the Km was 39.2 ± 2.8 mM, the kcat turned out to be 44.8 ± 1.7 s⁻¹ and the kcat/Km stood at 1140 ± 40 M⁻¹ s⁻¹.

For B5, the Km worked out at 7.48 ± 0.70 mM, the kcat was 1070 ± 50 s⁻¹ and the kcat/Km worked out at 144000 ± 8000 M⁻¹ s⁻¹.

Regarding B6, the Km came to 10.7 ± 1.3 mM, the kcat turned out to be 303 ± 16 s⁻¹ and the catalytic efficiency (kcat/Km) came out at 28200 ± 2000 M⁻¹ s⁻¹.

In the case of B7, the Km was determined as 5.02 ± 0.34 mM, the kcat turned out to be 27.8 ± 0.7 s⁻¹ and the kcat/Km turned out to be 5540 ± 250 M⁻¹ s⁻¹.
